B1: activated C1s–CCP1–CCP2–SP [human] / ElpB_(182–378) [B. burgdorferi] (parent)
chain 1: MPCPKEDTPNSVWEPAKAKYVFRDVVQITCLDGFEVVEGRVGATSFYSTCQSNGKWSNSKLKCQPVDCGIPESIENGKVEDPESTLFGSVIRYTCEEPYYYMENGGGGEYHCAGNGSWVNEVLGPELPKCVPVCGVPREPFEEKQRIIGGSDADIKNFPWQVFFDNPWAGGALINEYWVLTAAHVVEGNREPTMYVGSTSVQTSRLAKSKMLTPEHVFIHPGWKLLEVPEGRTNFDNDIALVRLKDPVKMGPTVSPICLPGTSSDYNLMDGDLGLISGWGRTEKRDRAVRLKAARLPVAPLRKCKEVKVEKPTADAEAYVFTPNMICAGGEKGMDSCKGDSGGAFAVQDPNDKTKFYAAGLVSWGPQCGTYGLYTRVKNYVDWIMKTMQENSTPRED
chain 2: QERKAKAEKEAKEKAERQKQEEQQKRKAEKEREEQRKEAEKRQVDNEIRTLTGKIDEINRNIDVIKEQTSVGAQGVIDRITGPVYDDFTDGNKAIYKTWGDLEDDNDEGLGKLLKELSDTRHNLRTKLNEGNKAYIIDTRSTEPQLKENVSVSEIKSDLDELKSKLEEVKEYLEDKDNFEEIKEYVAGSEDNYDEED

Variants of: B1
Assay: SPR
Settings: with ElpB_(182–378) [B. burgdorferi]; steady-state response at the highest analyte concentration plotted (about 5e-7 M on the x axis); ElpB182-378 immobilized, C1s construct injected; parent: 79; read off a plot

| Variant | response |
| --- | --- |
| chain 1 E35A D67A K284A R285A R290A K292A | 0 RU |
| chain 1 K284A R285A R290A K292A | 7 RU |

— paper PMC9637899
